Here are results for 1 substance from patent US20090148863A1.

The target of assay [1] is T-ZZ (transmembrane/translocation (T) domain of diphtheria toxin fused at its C-terminus with ZZ, a small portion of protein A) (UniProt P00588). The assay is described as follows: slope of FIG. 6A in the first 60 min, 11.12 nM AgMMUA-IgG, T-ZZ at 0.37 molecules/um^2 on living cells.
For assay [2] the target is unchanged. The assay is described as follows: single nanoparticle imaging on living cells with T-ZZ, value given in the summary.
Assay [3] shares this target. The assay is described as follows: counting single bound nanoparticles on living cells with T-ZZ against time (SNOMS, FIG. 6A).
The target is the same in assay [4]. The assay is described as follows: isotherm of the fraction of bound T-ZZ on living cells against AgMMUA-IgG concentration at equilibrium (SNOMS).
Assay [5] has the same target. The assay is described as follows: slope of FIG. 6A in the first 60 min, 2.78 nM AgMMUA-IgG, T-ZZ at 0.37 molecules/um^2 on living cells.
In assay [6] the target is protein A (PrA) from Staphylococcus aureus (Staphylococcus aureus) (UniProt P38507). Briefly: UV-vis absorbance change, 1.1 nM AgMMUA-IgG with about 100 nM PrA in PBS.
For assay [7] the target is unchanged. The assay is described as follows: UV-vis absorbance, average of equilibrium and kinetic methods, three repeats.
The target in assay [8] is T-ZZ (transmembrane/translocation (T) domain of diphtheria toxin fused at its C-terminus with ZZ, a small portion of protein A) (UniProt P00588). Briefly: slope of FIG. 6A in the first 60 min, 5.56 nM AgMMUA-IgG, T-ZZ at 0.37 molecules/um^2 on living cells.
The target in assay [9] is protein A (PrA) from Staphylococcus aureus (Staphylococcus aureus) (UniProt P38507). Briefly: UV-vis absorbance against time, simulation matched to the data of FIG. 3B.
Assay [10] addresses T-ZZ (transmembrane/translocation (T) domain of diphtheria toxin fused at its C-terminus with ZZ, a small portion of protein A) (UniProt P00588). The assay is described as follows: slope of FIG. 6A in the first 60 min, 1.39 nM AgMMUA-IgG, T-ZZ at 0.37 molecules/um^2 on living cells.
In assay [11] the target is protein A (PrA) from Staphylococcus aureus (Staphylococcus aureus) (UniProt P38507). The assay is described as follows: UV-vis absorbance against time, slope of FIG. 3C.
Assay [12] addresses T-ZZ (transmembrane/translocation (T) domain of diphtheria toxin fused at its C-terminus with ZZ, a small portion of protein A) (UniProt P00588). Briefly: slope of FIG. 6B, 2.78 nM AgMMUA-IgG, T-ZZ at 0.21 molecules/um^2 on living cells.

Chain of UniProt P00588 (P00588 234-410): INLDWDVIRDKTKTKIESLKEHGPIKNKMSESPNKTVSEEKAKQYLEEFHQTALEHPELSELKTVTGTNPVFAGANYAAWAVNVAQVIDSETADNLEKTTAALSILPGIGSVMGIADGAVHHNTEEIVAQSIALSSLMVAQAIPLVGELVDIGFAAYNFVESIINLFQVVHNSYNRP

In general, koff refers to the first-order rate constant of dissociation. Higher therefore signals a short-lived complex. In general, kon refers to the second-order rate constant of association. A high value points to faster complex formation. “AgMMUA-IgG nanoparticles (immunoglobulin G from rabbit serum covalently conjugated to 11.6 nm Ag nanoparticles carrying a mixed MUA/MCH monolayer) (antibody)”: the binding rate (molecules/min) in [1] was 27; in assay [5] it was 5.3; in assay [8], 20; in assay [10], 3; in [12], 2.3. The Ka in assay [2] was 4.3e+07 M⁻¹; in [3] it was 3e+07 M⁻¹; in assay [4], 4.8e+07 M⁻¹; in [7] it was 1.9e+06 M⁻¹. The koff in [3] was 0.0003 s⁻¹; in [9], 5.4e-05 s⁻¹. The values for the association rate constant (kon) in [3] and in [11] were 9000 M⁻¹ s⁻¹ and 120 M⁻¹ s⁻¹, respectively. This substance returned an amount of AgMMUA-IgG nanoparticles bound with PrA at equilibrium in assay [6] of 0.14 nM.
